Data from the RNAGym collection of RNA variant scans (doi:10.7554/elife.80360).

B1: CPEB3 Ribozyme (parent)
chain: GGGGGCCACAGCAGAAGCGUUCACGUCGCGGCCCCUGUCAGAUUCUGGUGAAUCUGCGAAUUCUGCUGU

Variants of: B1
Assay: self-cleavage, relative activity (ratio to wild type); higher = more cleavage; co-transcriptional

Row | Variant | self-cleavage
1 | GGGGGCCACAGCAGAAGCGUUCACGUCGCGGCCCCUGUCAGAUUCUGGUGAUUCUGCGGAUUCUGCUGU [A52U A59G] | 0.972
2 | GGGGGCCACAGCAGAAGCGUUCACGUCGCGGCCCCUGUCAGAUUCUGGUGAUUCUGCGUAUUCUGCUGU [A52U A59U] | 0.803
3 | GGGGGCCACAGCAGAAGCGUUCACGUCGCGGCCCCUGUCAGAUUCUGGUGAUUCUGCGCAUUCUGCUGU [A52U A59C] | 0.716
4 | GGGGGCCACAGCAGAAGCGUUCACGUCGCGGCCCCUGUCAGAUUCUGGUGAGUCUGCGACUUCUGCUGU [A52G A60C] | 0.336
5 | GGGGGCCACAGCAGAAGCGUUCACGUCGCGGCCCCUGUCAGAUUCUGGUGAGUCUGCGAGUUCUGCUGU [A52G A60G] | 0.922
6 | GGGGGCCACAGCAGAAGCGUUCACGUCGCGGCCCCUGUCAGAUUCUGGUGAGACUGCGAAUUCUGCUGU [A52G U53A] | 0.917
7 | GGGGGCCACAGCAGAAGCGUUCACGUCGCGGCCCCUGUCAGAUUCUGGUGAGUCAGCGAAUUCUGCUGU [A52G U55A] | 0.914
8 | GGGGGCCACAGCAGAAGCGUUCACGUCGCGGCCCCUGUCAGAUUCUGGUGAGUCGGCGAAUUCUGCUGU [A52G U55G] | 0.729
9 | GGGGGCCACAGCAGAAGCGUUCACGUCGCGGCCCCUGUCAGAUUCUGGUGAUUCUGCGAAUUCUACUGU [A52U G65A] | 0.783
10 | GGGGGCCACAGCAGAAGCGUUCACGUCGCGGCCCCUGUCAGAUUCUGGUGACCCUGCGAAUUCUGCUGU [A52C U53C] | 0.806
11 | GGGGGCCACAGCAGAAGCGUUCACGUCGCGGCCCCUGUCAGAUUCUGGUGAUUCUGCUAAUUCUGCUGU [A52U G58U] | 0.992
12 | GGGGGCCACAGCAGAAGCGUUCACGUCGCGGCCCCUGUCAGAUUCUGGUGAUUCUGCCAAUUCUGCUGU [A52U G58C] | 0.954
13 | GGGGGCCACAGCAGAAGCGUUCACGUCGCGGCCCCUGUCAGAUUCUGGUGAUUCUGCGAAUGCUGCUGU [A52U U62G] | 0.82
14 | GGGGGCCACAGCAGAAGCGUUCACGUCGCGGCCCCUGUCAGAUUCUGGUGAUUCUGCGAAUACUGCUGU [A52U U62A] | 0.829
15 | GGGGGCCACAGCAGAAGCGUUCACGUCGCGGCCCCUGUCAGAUUCUGGUGAGUCUGCAAAUUCUGCUGU [A52G G58A] | 0.926
16 | GGGGGCCACAGCAGAAGCGUUCACGUCGCGGCCCCUGUCAGAUUCUGGUGAGUCUGCUAAUUCUGCUGU [A52G G58U] | 1
17 | GGGGGCCACAGCAGAAGCGUUCACGUCGCGGCCCCUGUCAGAUUCUGGUGAGUCUGCGAAUUCUGCUAU [A52G G68A] | 1.01
18 | GGGGGCCACAGCAGAAGCGUUCACGUCGCGGCCCCUGUCAGAUUCUGGUGAGUCUGCGAAUUCUGCUCU [A52G G68C] | 0.975
19 | GGGGGCCACAGCAGAAGCGUUCACGUCGCGGCCCCUGUCAGAUUCUGGUGAUUCUGCGAAUUCUGAUGU [A52U C66A] | 0.701
20 | GGGGGCCACAGCAGAAGCGUUCACGUCGCGGCCCCUGUCAGAUUCUGGUGAUUCUGCGAAUUCUGUUGU [A52U C66U] | 0.973

Row | Variant | self-cleavage
21 | GGGGGCCACAGCAGAAGCGUUCACGUCGCGGCCCCUGUCAGAUUCUGGUGAGUCUGCGAACUCUGCUGU [A52G U61C] | 0.879
22 | GGGGGCCACAGCAGAAGCGUUCACGUCGCGGCCCCUGUCAGAUUCUGGUGAUUGUGCGAAUUCUGCUGU [A52U C54G] | 0.835
23 | GGGGGCCACAGCAGAAGCGUUCACGUCGCGGCCCCUGUCAGAUUCUGGUGAUUAUGCGAAUUCUGCUGU [A52U C54A] | 0.907
24 | GGGGGCCACAGCAGAAGCGUUCACGUCGCGGCCCCUGUCAGAUUCUGGUGACUCUGCGAAUUCUGCUGC [A52C U69C] | 1.05
25 | GGGGGCCACAGCAGAAGCGUUCACGUCGCGGCCCCUGUCAGAUUCUGGUGACUCUGCGAAUUCUGCUGG [A52C U69G] | 1.05
26 | GGGGGCCACAGCAGAAGCGUUCACGUCGCGGCCCCUGUCAGAUUCUGGUGAGUCUGCGAAUUCUGCUGU [A52G] | 0.995
27 | GGGGGCCACAGCAGAAGCGUUCACGUCGCGGCCCCUGUCAGAUUCUGGUGAUUCUGCGAAUUCUGCUGU [A52U] | 0.99
28 | GGGGGCCACAGCAGAAGCGUUCACGUCGCGGCCCCUGUCAGAUUCUGGUGACUCUGCGAAGUCUGCUGU [A52C U61G] | 0.67
29 | GGGGGCCACAGCAGAAGCGUUCACGUCGCGGCCCCUGUCAGAUUCUGGUGACUCUGCGAACUCUGCUGU [A52C U61C] | 0.759
30 | GGGGGCCACAGCAGAAGCGUUCACGUCGCGGCCCCUGUCAGAUUCUGGUGACUCUGCGAAAUCUGCUGU [A52C U61A] | 0.893
31 | GGGGGCCACAGCAGAAGCGUUCACGUCGCGGCCCCUGUCAGAUUCUGGUGAGUCUGCGAAUUCUGCUGC [A52G U69C] | 1.06
32 | GGGGGCCACAGCAGAAGCGUUCACGUCGCGGCCCCUGUCAGAUUCUGGUGAGUCUGCGAAUUCUGCUGG [A52G U69G] | 1.07
33 | GGGGGCCACAGCAGAAGCGUUCACGUCGCGGCCCCUGUCAGAUUCUGGUGAGUCUGCGAAUUCUGCUGA [A52G U69A] | 0.985
34 | GGGGGCCACAGCAGAAGCGUUCACGUCGCGGCCCCUGUCAGAUUCUGGUGAGUCUGCGAAUUCUGUUGU [A52G C66U] | 0.971
35 | GGGGGCCACAGCAGAAGCGUUCACGUCGCGGCCCCUGUCAGAUUCUGGUGAGUCUGCGAAUUCUGAUGU [A52G C66A] | 0.845
36 | GGGGGCCACAGCAGAAGCGUUCACGUCGCGGCCCCUGUCAGAUUCUGGUGAGUCUGCGAAUUAUGCUGU [A52G C63A] | 0.907
37 | GGGGGCCACAGCAGAAGCGUUCACGUCGCGGCCCCUGUCAGAUUCUGGUGAGUCUGCGAAUUUUGCUGU [A52G C63U] | 1
38 | GGGGGCCACAGCAGAAGCGUUCACGUCGCGGCCCCUGUCAGAUUCUGGUGAGUCUGCGAAUUGUGCUGU [A52G C63G] | 0.865
39 | GGGGGCCACAGCAGAAGCGUUCACGUCGCGGCCCCUGUCAGAUUCUGGUGAGUCUGCGAAUACUGCUGU [A52G U62A] | 0.871
